Data published in paper PMC12207370, “Macrocyclic Peptide Probes for Immunomodulatory Protein CD59: Potent Modulators of Bacterial Toxin Activity and Antibody‐Dependent Cytotoxicity” (Angewandte Chemie (International Ed. in English), 2025).

Target: T1, biotinylated CD59 (Homo sapiens, UniProt P13987)
T1 construct: Recombinant soluble human CD59 with an additional C-terminal cysteine residue
T1 sequence (P13987 26-102 limits assumed): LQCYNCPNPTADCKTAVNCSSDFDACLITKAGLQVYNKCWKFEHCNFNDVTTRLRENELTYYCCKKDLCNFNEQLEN
Assay: mRNA-display cyclic peptide screen against CD59-biotin, NGS abundance after 6th selection round
Settings: for Percentage Seq I: counts normalised by total counts of sample Seq I; for Percentage Seq I / Percentage Seq II: percentage of the pool; for Percentage Seq I / Percentage Seq II / Percentage Average / Percentage of the pool, averaged across the two sequencing samples / Percentage of the pool, Seq I / Percentage of the pool, Seq II: sheet R6; for Percentage Seq II: counts normalised by total counts of sample Seq II; for Percentage Average: percentage of the pool averaged across the two sequencing samples; for Counts Seq I / Counts Seq II: raw NGS counts of peptide sequence; for Counts Seq I: sequencing sample Seq I; for Counts Seq I / Counts Seq II / Counts (raw counts for peptide sequence), Seq I / Counts (raw counts for peptide sequence), Seq II: sheet R6 (6th selection round); for Counts Seq II: sequencing sample Seq II; for Counts (raw counts for peptide sequence), Seq I: NGS sample Seq I; for Counts (raw counts for peptide sequence), Seq II: NGS sample Seq II; for Percentage of the pool, averaged across the two sequencing samples: average of Seq I and Seq II; for Percentage of the pool, Seq I: counts normalised by total counts of NGS sample Seq I; for Percentage of the pool, Seq II: counts normalised by total counts of NGS sample Seq II
Text: To discover novel non‐protein CD59 ligands, we screened a library of 10^12 cyclic peptides against CD59 using mRNA‐display (Figure 2a).^[ [23], [24], [25], [26], [27], [28], [29] ^] Briefly, an mRNA library was designed in which the start codon was reprogrammed from Met to N‐chloroacetyl‐D‐Tyr (ClAc‐D‐Tyr), followed by 10–12 randomly encoded natural amino acids, a Cys residue, a (GlySer)3 linker, and a stop codon. […] The total library diversity was 1.51 × 10^13 molecules, comprising 5.02 × 10^12 molecules of each macrocycle size, covering a subset of the maximum theoretical diversity of this library design. Following in vitro translation, ClAc‐D‐Tyr spontaneously reacts with either the C‐terminal Cys or a Cys in the random region, yielding macrocyclic thioether peptides. Hits from the library were identified through iterative enrichment and amplification against biotinylated CD59, then immobilized on streptavidin beads. Fifteen hit sequences (CP‐01 to CP‐15), enriched with abundance >1% relative to the total pool of recovered binders after the 6th round of selection, were synthesized by solid phase peptide synthesis (SPPS), without the (Gly‐Ser)3 linker.
Figure 2 Discovery of macrocyclic peptide ligands with nanomolar CD59 affinity using mRNA display. a) The selection process. PCR = polymerase chain reaction, SPPS = solid phase peptide synthesis. b) Table showing details of the peptides with nanomolar affinity for CD59 as well as the binding affinity of the lead inhibitor of CD59, rILYd4. K D values are presented as the average of three technical replicates ± SEM. Structures of all peptides and SPR sensograms are presented in Figures S1 and S2. *indicates the presented sequences are the variable regions of these cyclic peptides; each is flanked by an N‐terminal Ac‐D‐Tyr cyclized to a C‐terminal Cys. R6 abundance (%) is defined as (the given number of NGS reads for a given sequence/the total number of reads of unique sequences observed in NGS)*100 following the 6th selection round. c) Representative sensogram of the interaction between CP‐06 with immobilized CD59 by SPR analysis. Inset showing the equilibrium binding curve of CP‐06 to CD‐59. Below in the box are the association and dissociation rate constants of CP‐06. Concentrations are plotted in descending order from 800‐3.1 nM in line with their position on the legend. […] (nM)'; the box with Kon/Koff has no label of its own / ILYd4: the label may be cut off at the left edge (possibly 'rILYd4') / CP-02, KD: 15.3 ± 0.2, small print, 3 or 8 uncertain / CP-03, KD: 23.4 ± 0.7, small print / CP-06, KD: 11.3 ± 0.0, small print, 3 or 8 uncertain / CP-13, KD: 10.8 ± 0.7, small print, 8 or 6 uncertain / ILYd4, KD: 48.3 ± 1.1, small print, 8 and 3 uncertain
The mRNA-display cyclic peptide screen was performed against CD59-biotin by T.E.M: DNA templates for transcription were generated by PCR in a similar manner to that previously described.^2 RNA oligonucleotides were transcribed from the DNA templates using T7 RNA polymerase and purified by phenol/chloroform extraction followed by ethanol precipitation. Oligonucleotide concentrations were determined spectroscopically by absorbance at 260 nm. In the first selection round a 1:1:1 molar ratio of NNK10/NNK11/NNK12 was used. The procedure for selection rounds 2-6 is described below; round 1 was conducted at twice the scale.
RNA encoding for the peptide library ligated to a puromycin-modified oligonucleotide was […] (final [RNA] = 2.5 µM) using a customised PURE express kit (lacking release factor 1 and methionine, supplemented with […] initiator tRNA acylated with N-chloroacetyl-d-tyrosine prepared as previously described)^3 in a final volume of 5.6 µL for 1 hour at 37 °C.
This mixture was incubated at 42 °C for 1 hour before being diluted to 500 µL with PBS (10 mM Na-PO4 pH 7.4, 2.7 mM KCl, 137 mM NaCl) and 0.5 µL taken for subsequent use in qPCR. […]

Sequence | Percentage Seq I | Percentage Seq II | Percentage Average | Counts Seq I | Counts Seq II | Counts (raw counts for peptide sequence), Seq I | Counts (raw counts for peptide sequence), Seq II | Percentage of the pool, averaged across the two sequencing samples | Percentage of the pool, Seq I | Percentage of the pool, Seq II
FVSGNSRFRRE | 0.062% | 0.070% | 0.066% | 270 | 30 |  |  |  |  | 
FVTGDRDHTRG | 0.127% | 0.121% | 0.124% | 554 | 52 |  |  |  |  | 
SSFREYNHLPCT | 0.598% | 0.694% | 0.646% | 2617 | 299 |  |  |  |  | 
IARGDRNHQFF |  |  |  |  |  | 42 | 6 | 0.012% | 0.010% | 0.014%
CPQLILRGWQ | 0.030% | 0.044% | 0.037% | 133 | 19 |  |  |  |  | 
NSCPDWVRGSRT | 0.229% | 0.262% | 0.246% | 1002 | 113 |  |  |  |  | 
FVRGDLYSVRG | 0.018% | 0.032% | 0.025% | 78 | 14 |  |  |  |  | 
WTRGSKDYTRG | 0.168% | 0.167% | 0.168% | 737 | 72 |  |  |  |  | 
CSRLTSRGWT |  |  |  |  |  | 62 | 5 | 0.013% | 0.014% | 0.012%
LQPPDRSCLPKI | 0.029% | 0.030% | 0.029% | 125 | 13 |  |  |  |  | 
DYNRIVWGRGNAAAAAAARTGGG |  |  |  |  |  | 89 | 6 | 0.017% | 0.020% | 0.014%
WSTGSSTFAAG | 0.034% | 0.042% | 0.038% | 149 | 18 |  |  |  |  | 
STWGNRNETRG | 0.029% | 0.026% | 0.028% | 129 | 11 |  |  |  |  | 
CFASRTLLNTSV | 0.102% | 0.104% | 0.103% | 446 | 45 |  |  |  |  | 
STRRDRLGLIC | 1.051% | 1.033% | 1.042% | 4600 | 445 |  |  |  |  | 
FVRGDLHSVLG | 0.058% | 0.044% | 0.051% | 253 | 19 |  |  |  |  | 
YVYGSRDRCWG | 0.445% | 0.441% | 0.443% | 1946 | 190 |  |  |  |  | 
CFSARAVLDGGW |  |  |  |  |  | 59 | 3 | 0.010% | 0.013% | 0.007%
CFARRLSASFGT | 1.002% | 0.935% | 0.969% | 4384 | 403 |  |  |  |  | 
CFLTRASQLSGT |  |  |  |  |  | 44 | 4 | 0.010% | 0.010% | 0.009%
